Drawing on patent US20120093811A1 (published 2012), this text covers koff for 19 molecules.

For orientation: koff means the rate constant with which the complex falls apart.

This experiment has as its target T1, VEGF-D (recombinant human; source not given) (human, UniProt O43915 89-205, limits assumed).
T1 construct: also used here as target of IC50 values averaged over Source 1 and Source 2; also called vascular endothelial growth factor-D
T1 sequence: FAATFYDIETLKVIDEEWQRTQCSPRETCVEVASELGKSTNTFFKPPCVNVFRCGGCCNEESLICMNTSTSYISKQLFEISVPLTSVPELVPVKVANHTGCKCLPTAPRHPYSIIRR
As to the kind of experiment: SPR (BIAcore) off-rate ranking of scFv clones. The protocol: Screening based on scFv binding properties involved surface plasmon resonance (SPR) measurements with a BIAcore™ biosensor. scFv variants were expressed in 200 μL E. coli cultures and the supernatants used to generate crude off-rate only kinetics, which were assessed “relative” to 1A, or other variants.

B1: scFv clone AA16 (scFv)
scFv: QAQLVQSGAEVKQPGASVKVSCKASGYTFTGYNMYWVRQAPGQGLEWMGYIDPYNGDTTYNQKFKGRVTMTTDTSTSTAYMELRSLRSDDTAVYYCARTSYYGGMDYWGRGTLVTVASGGGASGGGGSGGGGSDIVMTQTPLSSPVTLGQPASISCRSSQSLVHSNGNTYLHWLQQRPGQPPRLLIYKVSNRFSGVPDRFSGSGAGTDFTLKISRVEAEDVGVYYCSQSTHVPRTFGQGTKLEIKR
For B1, the off-rate (koff) was determined as 0.00795 s⁻¹.

B2: scFv clone BF36 (scFv)
scFv: QVQLVQSGAEVKQPGASVKVSCKASGYTFTGYNMYWVRQAPGQGLEWMGYIDPYNGDTTYNQRFKGRVTMTTDTSTSTAYMKLRSLRSDDTAVYYCARTSYYGGMDYWGRGALVTVASGGGASGGGGSGGGGSDIVMTQTPLSSPVTLGQPASISCRSSQSLVHSNGNTYLHWLQQRPGQPPRLLIYKVSNRFSGVPDRFSGSGAGTDFTLRISRVEAEDVGVYYCSQSTHVPRTFGQGTKLEIKR
As to B2, the koff was 0.00362 s⁻¹.

B3: scFv clone CX03 (scFv)
scFv: QVQLVQSGAEVKQPGASVTVSCKASGYTFTGYNMYWVRQAPGQGLEWMGYIDPYNGDTTYNQKFKGRVTMTTDTSTSTAYMELRSLRSDDTAVYYCARTSYYGGMDYWGRGTLVTVASGGGASGGGGSGGGGSDIVMTQTPLSSPVTLGQPASISCRSSQSLVHSNGNTYLHWLQQRPGQPPRLLIYKVSNRFSGVPGRFSGSGAGTDFTLKISRVEAEDVGVYYCSQSTHVPRTFGQGTKLEIKR
B3: the koff is 0.00739 s⁻¹.

B4: scFv clone CZ77 (scFv)
scFv: QVQLVQSGAKVKQPGASVKASCKASGYTFTGYNMYWVRQAPGQGLEWMGYIDPYNGDTTYNQKFRGRVTMTTDTSTSTAYMELRSLRSDDTAVYYCARTSYYGGMDYWGRGTLVTVASGGGASGGGGSGGGGSDIVMTQTPLSSPVTLGQPASISCRSSQSLVHSNGNTYLHWLQQRPGQPPRLLIYKVSNRFSGVPDRFSGSGAGTDFTLKISRVEAEDVGVYYCSQSTHVPRTFGQGTKLEIKR
For B4, the koff was determined as 0.00408 s⁻¹.

B5: scFv clone CZ13 (scFv)
scFv: QVQLAQSGAKVKQPGASVKASCKASGYTFTGYNMYWVRQAPGQGLEWMGYIDPYNGDTTYNQKFKGRVTMTTDTSTSTAYMELRSLRSDDTAVYYCARTSYYGGMDYWGRGTLVTVASGGGASGGGGSGGGGSDIVMTQTPLSSPVTLGQPASISCRSSQSLVHSNGNTYLHWLQQRPGQPPRLLIYKVSNRFSGVPDRFSGSGAGTDFTLKISRVEAEDVGVYYCSQSTHVPRTFGQGTKLEIKR
Regarding B5, the koff turned out to be 0.00826 s⁻¹.

B6: scFv clone CK61 (scFv)
scFv: QVQLVQSGAKVKQPGASVKVSCKASGYTFTGYNMYWVRQAPGQGLEWMGYIDPYNGDTTYNQKFKGRVTMTTDTSTSTAYMKLRSLRSDDTAVYYCARTSYYGGMDYWGRGTLVTVASGGGASGGGGSGGGGSDIVMTQTPLSSPVTLGQPASISCRSSQSLVHSNGNTYLHWLQQRPGQPPRLLIYKVSNRFSGVPDRFSGSGAGTDFTLKISRVEAEDVGVYYCSQSTHVPRTFGQGTKLEIKR
B6: the koff worked out at 0.00522 s⁻¹.

B7: scFv clone AC75 (scFv)
scFv: QVQLVQSGAEVKQPGASVKVSCKASGYTFTGYNMYWVRQAPGQGLEWMGYIDPYNGDTTYNQKFKGRVTMTTDTSTSTAYVELRSLRSDDTAVYYCARTSYYGGMDYWGRGTLVTVASGGGASGGGGSGGGGSDIVMTQTPLSSPVTLGQPASISCRSSQSLVHSNGNTYLHWLQQRPGQPPRLLIYKVSNRFSGVPDRFSGSGAGTDFTLKISRVEAEDVGVYYCSQSTHVPRTFGQGTKLEIKR
As for B7, the koff was found to be 0.00637 s⁻¹.

B8: scFv clone DD76 (scFv)
scFv: QVQLVQSGAKVKQPGASVKASCKASGYTFTGYNMYWVRQAPGQGLEWMGYIDPYNGDTTYNQKFKGRVTMTTDTNTSTAYMELRSLRSDDTAVYYCARTSYYGGMDYWGRGTLVTVASGGGASGGGGSGGGGSDIVMTQTPLSSPVTLGQPASISCRSSQSLVHSNGNTYLHWLQQRPGQPPRLLIYKVSNRFSGVPDRFSGSGAGTDFTLKISRVEAEDVGVYYCSQSTHVPRTFGQGTKLEIKR
B8: the koff was found to be 0.00637 s⁻¹.

B9: scFv clone DA74 (scFv)
scFv: QVQLAQSGAKVKQPGASVKASCKASGYTFTGYNMYWVRQAPGQGLEWMGYIDPYNGDTTYNQKFKGRVTMTTDTSTSTAYMELRSLRSDDTAVYYCARTSYYGGMDYWGRGTLVTVASGGGASGGGGSGGGGSDIVMTQTPLSSPVTLGQPASISCRSSQSLVHSNGNTYLHWLQQRPGQPPRLLIYKVSNRSSGVPDRFSGSGAGTDFTLKISRVEAEDVGVYYCSQSTHVPRTFGQGTKLEIKR
In the case of B9, the koff came out at 0.00424 s⁻¹.

B10: scFv clone DC64 (scFv)
scFv: QVQLVQSGAKVKQPGASMKASCKASGYTFTGYNMYWVRQAPGQGLEWMGYIDPYNGDTTYNQKFKGRVTMTTDTSTSTAYMELRSLRSDDTAVYYCARTSYYGGMDYWGRGTLVTVASGGGASGGGGSGGGGSDIVMTQTPLSSPVTLGQPASISCRSSQSLVHSNGNTYLHWLQQRPGQPPRLLIYKVSNRFSGVPDRFSGSGAGTDFTLKISRVEAEDVGVYYCSQSTHVPRTFGQGTKLEIKR
B10: the koff was determined as 0.00738 s⁻¹.

B11: scFv clone DC56 (scFv)
scFv: QVQLVQSGAKVRQPGASVKASCKASGYTFTGYNMYWVRQAPGQGLEWMGYIDPYNGDTTYNQKFKGRVTMTTDTSTSTAYMELRSLRSDDTAVYYCARTSYYGGMDYWGRGTLVTVASGGGASGGGGSGGGGSDIVMTQTPLSSPVTLGQPASISCRSSQSLVHSNGNTYLHWLQQRPGQPPRLLIYKVSNRFSGVPDRFSGSGAGTDFTLKISRVEAEDVGVYYCSQSTHVPRTFGQGTKLEIKR
With B11, the koff was 0.00723 s⁻¹.

B12: scFv clone DB29 (scFv)
scFv: QVQLVQSGAKVKQPGASVKASCKASGYTFTGYNMYWVRQAPGQGLEWMGYIDPYNGDTTYNQKFKGRVTMTTDTSTSTAYMELRSLRSDDTAVYYCARTSYYGGMDYWGRGTLVTVASGGGASGGGGSGGGGSDIVMTQTPLSGPVTLGQPASISCRSSQSLVHSNGNTYLHWLQQRPGQPPRLLIYKVSNRFSGVPDRFSGSGAGTDFTLKISRVEAEDVGVYYCSQSTHVPRTFGQGTKLEIKR
With B12, the koff was 0.00575 s⁻¹.

B13: scFv clone CZ24 (scFv)
scFv: QVQLVQSGAKVKQPGANVKASCKASGYTFTGYNMYWVRQAPGQGLEWMGYIDPYNGDTTYNQKFKGRVTMTTDTSTSTAYMELRSLRSDDTAVYYCARTSYYGGMDYWGRGTLVTVASGGGASGGGGSGGGGSDIVMTQTPLSSPVTLGQPASISCRSSQSLVHSNGNTYLHWLQQRPGQPPRLLIYKVSNRFSGVPDRFSGSGAGTDFTLKISRVEAEDVGVYYCSQSTHVPRTFGQGTKLEIKR
Turning to B13, the koff was 0.00759 s⁻¹.

B14: scFv clone D69 (scFv)
scFv: QVQLVQSGAEVKQPGASVKVSCKASGYTFTGYNMYWVRQAPGQGLEWMGYIDPYNGDTTYNQKFKGRVTMTTDTSTSTAYMELRSLRSDDTAVYHCARTSYYGGMDYWGRGTLVTVASGGGASGGGGSGGGGSDIVMTQTPLSSPVTLGQPASISCRSSQSLVHSNGNTYLHWLQQRPGQPPRLLIYKVSNRFSGVPGRFSGSGAGTDFTLKISRVEAEDVGVYYCSQSTHVPRTFGQGTKLEIKR
As to B14, the koff was determined as 0.00341 s⁻¹.

B15: scFv clone CJ17 (scFv)
scFv: QVQLVQSGAEVKQPGASVKVSCEASGYTFTGYNMYWVRQAPGQGLEWMGYIDPYNGDTTYNQKFKGRVTMTTDTSTSTAYMKLRSLRSDDTAVYYCARTSYYGGMDYWGRGTLVTVASGGGASGGGGSGGGGSDIVMTQTPLSSPVTLGQPASISCRSSQSLVHSNGNTYLHWLQQRPGQPPRLLIYKVSNRFSGVPDRFSGSGAGTDFTLKISRVEAEDVGVYYCSQSTHVPRTFGQGTKLEIKR
In the case of B15, the koff amounted to 0.00291 s⁻¹.

B16: scFv clone DD17 (scFv)
scFv: QVQLVQSGAKVKQPGAGVKASCKASGYTFTGYNMYWVRQAPGQGLEWMGYIDPYNGDTTYNQKFKGRVTMTTDTSTSTAYMELRSLRSDDTAVYYCARTSYYGGMDYWGRGTLVTVASGGGASGGGGSGGGGSDIVMTQTPLSSPVTLGQPASISCRSSQSLVHSNGNTYLHWLQQRPGQPPRLLIYKVSNRFSGVPDRFSGSGAGTDFTLKISRVEAEDVGVYYCSQSTHVPRTFGQGTKLEIKR
Consider B16, for which the koff was 0.0091 s⁻¹.

B17: scFv clone DD25 (scFv)
scFv: QVQLVQSGAKVKQPGASVKASCKASGYTFTGYNMYWVRQAPGQGLEWVGYIDPYNGDTTYNQKFKGRVTMTTDTSTSTAYMELRSLRSDDTAVYYCARTSYYGGMDYWGRGTLVTVASGGGASGGGGSGGGGSDIVMTQTPLSSPVTLGQPASISCRSSQSLVHSNGNTYLHWLQQRPGQPPRLLIYKVSNRFSGVPDRFSGSGAGTDFTLKISRVEAEDVGVYYCSQSTHVPRTFGQGTKLEIKR
Regarding B17, the koff was determined as 0.00373 s⁻¹.

B18: scFv clone CW16 (scFv)
scFv: QVQLVQSGAEVKQPGASVKVSCKASGYTFTGYNMYWVRQAPGQGLEWMGYIDPYNGDTTYNQKFKGRVTMTTDTSTSTAYMELRSLRSGDTAVYYCARTSYYGGMDYWGRGTLVTVASGGGASGGGGSGGGGSDIVMTQTPLSSPATLGQPASISCRSSQSLVHSNGNTYLHWLQQRPGQPPRLLIYKVSNRFSGVPDRFSGSGAGTDFTLKISRVEAEDVGVYYCSQSTHVPRTFGQGTKLEIKR
For B18, the koff turned out to be 0.00726 s⁻¹.

B19: scFv clone CI67 (scFv)
scFv: QVQLVQSGAEVKQPGASVKVSCKASGYTFTGYNMYWVRQAPGQGLEWMGYIDPYNGDTTYNQKFKGRATMTTDTSTSTAYMKLRSLRSDDTAVYYCARTSYYGGMDYWGRGTLVTVASGGGASGGGGSGGGGSDIVMTQTPLSSPVTLGQPASISCRSSQSLVHSNGNTYLHWLQQRPGQPPRLLIYKVSNRFSGVPDRFSGSGAGTDFTLKISRVEAEDVGVYYCSQSAHVPRTFGQGTKLEIKR
Take B19: the koff turned out to be 0.00379 s⁻¹.
